Results from patent US10509035B2, “Antibodies, antibody drug conjugates and methods of use” (GAMAMABS PHARMA, priority 2015, dated 2019).

Columns and labels:
[1] = molecular target: T1, AMHR2 receptor expressed at the surface membrane of the COV434 AMHR2 transfected cell line (Homo sapiens, UniProt Q16671); assay: FACS binding to AMHR-II receptor at the surface of the COV434 AMHR-II transfected cell line; details: concentrations 0.5 to 75 μg/ml, Hill slope fit (Example 4)
T1 construct: expressed in transfected cells; host or cells: COV434
T1 sequence (Q16671 18-573): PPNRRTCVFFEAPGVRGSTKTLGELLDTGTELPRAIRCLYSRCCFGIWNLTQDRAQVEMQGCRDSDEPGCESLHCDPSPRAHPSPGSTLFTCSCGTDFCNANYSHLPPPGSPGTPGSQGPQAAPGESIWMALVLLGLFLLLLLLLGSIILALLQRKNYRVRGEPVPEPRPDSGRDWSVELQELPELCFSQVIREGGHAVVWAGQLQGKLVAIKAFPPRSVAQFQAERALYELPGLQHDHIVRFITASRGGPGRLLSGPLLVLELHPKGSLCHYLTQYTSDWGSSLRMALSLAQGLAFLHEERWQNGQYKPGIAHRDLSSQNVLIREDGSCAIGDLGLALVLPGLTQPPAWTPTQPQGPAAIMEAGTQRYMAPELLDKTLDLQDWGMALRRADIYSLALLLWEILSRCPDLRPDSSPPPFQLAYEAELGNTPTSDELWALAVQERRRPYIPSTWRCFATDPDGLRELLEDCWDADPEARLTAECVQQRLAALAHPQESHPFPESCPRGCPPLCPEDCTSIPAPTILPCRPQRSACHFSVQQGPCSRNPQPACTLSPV
Protocol: The COV434 AMHR-II transfected and the COV434 WT cell lines were maintained in DMEM/GlutaMax (Gibco) supplemented with 10% FBS, penicillin 100 U/ml and Streptomycin 100 μg/ml. Geneticin at 666 μg/ml was added for the COV434 AMHR-II transfected cell line. […] After washes, Phycoerythrin-conjugated anti-human IgG antibody (1:200, Beckman-Coulter) was added for 1 hour at room temperature. FACS analysis of the resuspended cells was done on a BD Accuri™ C6 flow cytometer (BD Bioscience).
The binding capacity of the anti-AMHR-II antibody variants K4D24 and 6C59 to the AMHR-II expressing cell lines was evaluated by flow cytometry analysis in the same manner as example 4. FACS analysis with COV434-AMHR-II transfected cell line is described in FIG. 16. The Kapparent of the K4D24 and 6C59 variants were improved by a factor of 20 and 40 fold respectively as compared to the 3C23K (0.098 μg/ml and 0.05 μg/ml versus 2.2 μg/ml). The binding capacity of these variants was also assayed on the low expressing AMHR-II COV434 WT cell line. In this setting the binding was evaluated with three concentrations of variants (25, 10 and 5 μg/ml) and three concentrations of 3C23K (50, 25 and 10 μg/ml).

[2] = molecular target: T2, AMHR-II receptor protein (AMHR-II-ECD-Fc) (Homo sapiens, UniProt Q16671); assay: Binding kinetic parameters by surface plasmon resonance (Bia3000) on immobilized AMHR-II-ECD-Fc; details: SPR, 25° C., Langmuir 1:1 fitting model
T2 construct: Fc (C); purchased R&D System
T2 sequence (Q16671 18-149 limits assumed): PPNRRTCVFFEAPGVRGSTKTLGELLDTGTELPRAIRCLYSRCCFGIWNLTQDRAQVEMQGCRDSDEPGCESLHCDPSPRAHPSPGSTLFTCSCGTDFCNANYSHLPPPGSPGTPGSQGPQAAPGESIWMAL
Protocol: Immobilization of AMHRII was performed on a Bia3000 apparatus at 25° C. in HBS-EP (HEPES 10 mM, NaCl 150 mM, EDTA 3 mM, P20 surfactant 0.005%) at […] flow rate on CM5 sensor chip using EDC/NHS (1-Ethyl-3-3-dimethylaminopropyl carbodiimidehydrochloride) activation according to the manufacturer's instructions (GEHealthcare). Briefly, carboxyl functions of CM5 sensor chip were activated with 0.4M EDC/0.1M NHS during 7 min. A solution of AMHR-II-ECD-Fc (R&D System) at 2.5 μg/ml in sodium acetate buffer was injected during 12 min. An injection of 1M ethanolamine hydrochloride was used to neutralize the activation. Recombinant AMHR-II was covalently immobilized at 1270 RU level. A control reference surface was prepared using the same chemical treatment of without injection of AMHRII.
Antibodies at different concentrations (from 0.5 nM to 133 nM) were injected during 180s on AMHRII-coated flowcell and the control flowcell. After a dissociation step of 400s in running buffer, sensor surfaces were regenerated using 5 μl of Glycine-HCl pH1.7. All the sensorgrams were corrected by subtracting the low signal from the control reference surface. Kinetic parameters were evaluated from the sensorgrams using a Langmuir 1:1 fitting model on the BiaEvaluation 4.2 software.

[3] = tested on: COV434 AMHR-II transfected cell line; assay: Apoptosis induction, Annexin V-FITC / propidium iodide flow cytometry; assay type: cell-based; details: 250 μg/ml, 48 hours
Protocol: The percentage of apoptotic was assessed using the Annexin V-Fluos Staining kit (Roche) according to the manufacturer's protocol. […] Carboplatin (300 μM) was used as positive control. After washes and centrifugation, the cell pellets were resuspended in the Annexin-V-Fluorescein and propidium iodide reagents. Following 10 minutes incubation at room temperature, samples were analyzed by flow cytometry on a BD Accuri™ C6 flow cytometer (BD Bioscience).

COV434 WT cell line = assay: Antibody internalization (flow cytometry); assay type: cell-based; details: 10 μg/ml, low level of AMHR-II expression
Protocol: (§1) Antibody mediated internalization were assessed by flow cytometry analysis and by immunofluorescence imaging. Flow cytometry experiments was done on the two expressing AMHR-II cell lines: COV434 WT with low level of expression and COV434-AMHR-II transfected cell line with high level of expression. Briefly, 5×10^5 cells were incubated with 3C23K at 10 μg/ml and incubated 30 min at 4° C. After washes, DMEM/GlutaMax (Gibco) medium, cold or pre-warmed at 37° C., was added and incubated at 4° C. or 37° C. at different time points (15 min, 30 min and 60 min). Phycoerythrin-conjugated anti-human IgG antibody (1:200, Beckman-Coulter) was added for 30 min at 4° C. FACS analysis of the resuspended cells was done on a BD Accuri™ C6 flow cytometer (BD Bioscience). As depicted in FIGS. 9A and 9B, the internalization of the 3C23K observed at 37° C. is fast whatever the level of AMHR-II expression. For immunofluorescence imaging experiments, COV434 AMHR-II transfected cell line were grown on poly-D lysine coated glass coverslips overnight at 37° C. at a density of 75000 cells/cm^2. Cells were incubated with 3C23K directly labelled with Alexa Fluor 488 for 1H30 at 4° C. to carry out surface labelling. […] Internalization was quantified by counting the number of visible vesicles in cell section at different incubation time using Image J software.

[4] = tested on: COV434 AMHR-II transfected cell line; assay: Antibody internalization (flow cytometry and immunofluorescence imaging); assay type: cell-based
Protocol: Antibody mediated internalization were assessed by flow cytometry analysis and by immunofluorescence imaging. Flow cytometry experiments was done on the two expressing AMHR-II cell lines: COV434 WT with low level of expression and COV434-AMHR-II transfected cell line with high level of expression. Briefly, 5×10^5 cells were incubated with 3C23K at 10 μg/ml and incubated 30 min at 4° C. After washes, DMEM/GlutaMax (Gibco) medium, cold or pre-warmed at 37° C., was added and incubated at 4° C. or 37° C. at different time points (15 min, 30 min and 60 min). Phycoerythrin-conjugated anti-human IgG antibody (1:200, Beckman-Coulter) was added for 30 min at 4° C. FACS analysis of the resuspended cells was done on a BD Accuri™ C6 flow cytometer (BD Bioscience). As depicted in FIGS. 9A and 9B, the internalization of the 3C23K observed at 37° C. is fast whatever the level of AMHR-II expression. For immunofluorescence imaging experiments, COV434 AMHR-II transfected cell line were grown on poly-D lysine coated glass coverslips overnight at 37° C. at a density of 75000 cells/cm^2. Cells were incubated with 3C23K directly labelled with Alexa Fluor 488 for 1H30 at 4° C. to carry out surface labelling. Cell surface bound antibodies were allowed to internalize by incubating cells in prewarmed medium at 37° C. At appropriate time points, coverslips were removed and cells were washed in PBS, then fixed in formaline (4%, 30 min at room temperature) and permeabilized (Triton X-100 0.5%, 5 min at room temperature). Nuclei were stained with DAPI (4′,6-diamidino-2-phenylindole) and coverslips were mounted on microscope slides and imaged with Leica DM5000 microscope (Leica Microsystems). Internalization was quantified by counting the number of visible vesicles in cell section at different incubation time using Image J software.
The internalization capacity of the K4D24 and 6C59 variants was assayed by fluorescence cytometry analysis in the same manner as in Example 8 except for the concentrations used. Due to their strong binding, K4D24 and 6C59 were used at 0.5 μg/ml and 0.3 μg/ml respectively whereas the 3C23K was used at 10 μg/ml.

[5] = tested on: COV434 AMHR-II transfected cell line; assay: Co-localization with the lysosomal marker LAMP-1 (immunofluorescence); assay type: cell-based
Protocol: as §1, with “software. […]” for “software.”

[6] = molecular target: T3, FCGRIIIA receptor (CD16a) (Homo sapiens, UniProt P08637); assay: ELISA binding to the extracellular domain of CD16a; details: 200 ng per well CD16a, 0.3 to 5.0 μg/ml
T3 construct: purchased R&D System
Protocol: The binding of anti-AMHR-II antibodies to the extracellular domain of CD16a was evaluated by ELISA. ELISA plates (96 wells, Maxisorp, NUnc) were coated overnight at +4° C. with 200 ng per wells of CD16a (R&D System) or an irrelevant protein (NS, non-specific binding). The experimental protocol was identical to that described for example 1. The unconjugated and ADC 3C23K antibodies were tested at concentrations from 0.3 to 5.0 μg/ml.

T3 sequence (P08637 17-208 limits assumed): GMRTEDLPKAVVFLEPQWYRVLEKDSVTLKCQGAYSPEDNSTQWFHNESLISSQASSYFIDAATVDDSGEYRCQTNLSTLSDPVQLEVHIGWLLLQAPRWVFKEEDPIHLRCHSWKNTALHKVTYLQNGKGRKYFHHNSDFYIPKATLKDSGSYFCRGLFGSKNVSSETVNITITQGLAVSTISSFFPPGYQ

B1: 3C23K (antibody, V domains shown)
VH: QVRLVQSGAEVKKPGASVKVSCKASGYTFTSYHIHWVRQAPGQRLEWMGWIYPGDDSTKYSQKFQGRVTITRDTSASTAYMELSSLRSEDTAVYYCTRGDRFAYWGQGTLVTVSS
VL: DIQMTQSPSTLSASVGDRVTITCRASSSVRYIAWYQQKPGKAPKLLTYPTSSLKSGVPSRFSGSGSGTEFTLTISSLQPDDFATYYCLQWSSYPWTFGGGTKVEIK
modifications: 3C23K/3C23; 3C23K
[1]
  KDapparent: ~3.1 µg/mL
[2]
  KA: 1.81e+10 M⁻¹
  Kd: 0.05 nM
  ka: 125000 M⁻¹ s⁻¹
  kd: 6.93e-06 s⁻¹
[3]
  apoptosis induction: did not induce any apoptosis
COV434 WT cell line
  internalization observed at 37° C.: fast
[4]; flow cytometry, 10 μg/ml, high level of AMHR-II expression
  internalization observed at 37° C.: fast
[4]; immunofluorescence imaging, 3C23K Alexa Fluor 488, 37° C.
  time of maximum of intracellular location: 60 min
[5]
  detection in the lysosomal compartment (colocalization with LAMP-1): rapidly detected in the lysosomal compartment
[6]
  binding to CD16a: very high affinity
